# ± gives the uncertainty stated by the source.
# Experiment: self-splicing fitness, log relative to wild type (ln ratio); higher = more splicing; Tetrahymena group I intron in knt gene, E. coli kanamycin selection, DiMSum; sequences stand for … in CUCUCU…GGAGGGAAAAGUUAUCAGGCAUGCACCUGGUAGCUAGUCUUUAAACCAAUAGAUUGCAUCGGUUUAAAAGGCAAGACCGUCAAAUUGCGGGAAAGGGGUCAACAGCCGUUCAGUACCAAGUCUCAGGGGAAACUUUGAGAUGGCCUUGCAAAGGGUAUGGUAAUAAGCUGACGGACAUGGUCCUAACCACGCAGCCAAGUCCUAAGUCAACAGAUCUUCUGUUGAUAUGGAUGCAGUUCACAGACUAAAUGUCGGUCGGGGAAGAUGUAUUCUUCUCAUAAGAUAUAGUCGGACCUCUCCUUAAUGGGAGCUAGCGGAUGAAGUGAUGCAACACUGGAGCCGCUGGGAACUAAUUUGUAUGCGAAAGUAUAUUGAUUAGUUUUGGAGUACUCGUGGUCG
# How it was run: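 A randomised library covering all eight P1ex-region intron nucleotides was built with the intron in the knt kanamycin-resistance gene on pET-22b(+) and held in E. coli BL21(DE3). Cells were grown overnight at 37°C or 30°C on LB agar, with or without 25 μg/mL kanamycin, plus 100 μg/mL carbenicillin, 50 μM IPTG and 0.2% rhamnose, and pooled colonies were amplicon-sequenced on an Illumina HiSeq 2500. DiMSum fitness is the error-weighted combination of wild-type-normalised replicate fold changes, kanamycin versus none.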
Sequence,self-splicing fitness (ln) (30 °C),self-splicing fitness (ln) (37 °C)
GACCAGCAAUAUUACGCGGU,-4.81 ± 0.39,-3.27 ± 0.27
AUAAAGCAAUAUUACGCAGU,-1.89 ± 0.11,-0.968 ± 0.096
CGGAAGCAAUAUUACGAACC,–,-1.43 ± 0.41
AGAAAGCAAUAUUACGCUCC,-1.89 ± 0.23,-1.19 ± 0.24
CUAGAGCAAUAUUACGUGUG,-0.455 ± 0.055,0.162 ± 0.08
AAGCAGCAAUAUUACGACAU,-0.341 ± 0.011,-0.0663 ± 0.032
CUACAGCAAUAUUACGCUCA,-4.47 ± 0.42,-2.6 ± 0.39
ACAUAGCAAUAUUACGAAGG,-3.69 ± 0.28,-1.33 ± 0.18
CCAGAGCAAUAUUACGCGUU,-4.06 ± 0.23,-2.65 ± 0.18
UUCUAGCAAUAUUACGCUAC,-2.37 ± 0.38,–
CUUUAGCAAUAUUACGAUUU,-2.66 ± 0.18,-2.72 ± 0.3
AUUAAGCAAUAUUACGGCCC,-0.404 ± 0.27,-0.419 ± 0.27
ACGAAGCAAUAUUACGAAAA,-3.5 ± 0.43,-2.78 ± 0.43
GCUCAGCAAUAUUACGCUCA,-1.59 ± 0.11,-0.171 ± 0.11
CCUAAGCAAUAUUACGACGU,-3.61 ± 0.29,-2.17 ± 0.22
CAACAGCAAUAUUACGCGCC,-1.54 ± 0.073,-1.43 ± 0.11
CAGUAGCAAUAUUACGUAAA,-2.13 ± 0.16,-1.61 ± 0.24
UUAAAGCAAUAUUACGAGGA,-1.84 ± 0.13,-0.545 ± 0.16
AUUGAGCAAUAUUACGGAAA,-2.56 ± 0.3,-1.7 ± 0.25
UUGAAGCAAUAUUACGAAGC,-3.4 ± 0.3,-2.48 ± 0.49
AGGUAGCAAUAUUACGGUUG,-3.675 ± 0.026,-2.4 ± 0.039
GCUGAGCAAUAUUACGUUGA,-2.57 ± 0.22,-2.61 ± 0.22
AUUCAGCAAUAUUACGCGUA,-1.16 ± 0.086,-0.145 ± 0.11
GUAGAGCAAUAUUACGUGCG,-1.13 ± 0.081,0.0284 ± 0.12
UGGUAGCAAUAUUACGGCAC,–,-1.39 ± 0.44

Sequence,self-splicing fitness (ln) (30 °C),self-splicing fitness (ln) (37 °C)
AGUCAGCAAUAUUACGCUAG,-3.33 ± 0.18,-2.64 ± 0.23
AUCUAGCAAUAUUACGGAAU,-1.87 ± 0.16,-2.1 ± 0.19
GAGUAGCAAUAUUACGGCCU,-0.381 ± 0.12,0.808 ± 0.19
UCUAAGCAAUAUUACGGAGG,-2.49 ± 0.26,-3.05 ± 0.43
GGACAGCAAUAUUACGCGUC,-2.69 ± 0.22,-2.78 ± 0.48
GGUAAGCAAUAUUACGUCAC,-2.85 ± 0.24,-2.04 ± 0.23
GAUGAGCAAUAUUACGUUCC,-3.45 ± 0.49,-2.23 ± 0.42
AGCGAGCAAUAUUACGACUC,-2.06 ± 0.21,-1.3 ± 0.24
UGCUAGCAAUAUUACGACUC,-2.59 ± 0.27,-0.141 ± 0.2
AGCCAGCAAUAUUACGACCG,-3.83 ± 0.32,-1.89 ± 0.24
ACCUAGCAAUAUUACGGCGU,-0.278 ± 0.056,0.12 ± 0.07
ACCCAGCAAUAUUACGAUUG,-4.36 ± 0.19,-2.78 ± 0.16
GAUUAGCAAUAUUACGUUGC,–,-1.94 ± 0.26
UACCAGCAAUAUUACGACUG,-4.48 ± 0.39,-3.05 ± 0.25
GAGUAGCAAUAUUACGACAA,-0.891 ± 0.12,-0.0944 ± 0.12
UCCCAGCAAUAUUACGGGUA,-0.837 ± 0.065,-0.432 ± 0.071
ACUAAGCAAUAUUACGUUUC,-4.35 ± 0.26,-1.85 ± 0.19
AUUGAGCAAUAUUACGUCCU,-2.41 ± 0.19,-0.811 ± 0.15
AGGUAGCAAUAUUACGGUGU,-2.356 ± 0.015,-1.01 ± 0.033
GGGUAGCAAUAUUACGGCAU,-0.0241 ± 0.076,-0.23 ± 0.096
UACCAGCAAUAUUACGUUUG,-3.36 ± 0.12,-2.43 ± 0.13
GGGCAGCAAUAUUACGCGAA,-0.567 ± 0.073,0.0161 ± 0.099
AAAAAGCAAUAUUACGACCU,0.273 ± 0.072,0.617 ± 0.089
CGUCAGCAAUAUUACGGUAA,-1.1 ± 0.26,-1.3 ± 0.23
